From patent publication US7588931B2, “High arachidonic acid producing strains of Yarrowia lipolytica” (E. I. du Pont de Nemours and Company, priority 2004, dated 2009) come the findings set out here.

For data set [1], the system named is β-glucuronidase (GUS) reporter. The data set is described as follows: Relative promoter activity rank from comparative GUS reporter studies (histochemical, fluorometric and/or Real Time PCR). Format: cell-based, Yarrowia lipolytica. Further details: key: a ‘1’ corresponds to the promoter with lowest activity; a ‘7’ corresponds to the promoter with highest activity. The following applies: relative to other promoters. The method in brief: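 GUS activity from each promoter construct was measured by histochemical and/or fluorometric assays and/or Real Time PCR. Promoters were ranked relative to one another, from 1 (lowest activity) to 7 (highest activity).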

The next data set deals with GUS mRNA. Description: Comparative analysis of promoters by quantitative (Real Time) PCR of GUS mRNA. The following applies: for transcription activity relative to the TEF promoter: after 24 hrs in HGM, ATCC #76982 strains. Format: cell-based, Yarrowia lipolytica. Here is the method: The transcriptional activities of the TEF, GPD, GPDIN, FBA and FBAIN promoters were determined in Y. lipolytica containing the pY5-30, PYZGDG, pDMW222, pDMW212 and pDMW214 constructs by quantitative PCR analyses. This required isolation of RNA and real time RT-PCR.
More specifically, Y. lipolytica ATCC #76982 strains containing pY5-30, PYZGDG, pDMW222, pDMW212 and pDMW214 were grown from single colonies in 6 mL of MM in 25 mL Erlenmeyer flasks for 16 hrs at 30° C. Each of the 6 mL starter cultures was then added to individual 500 mL flasks containing 140 mL HGM and incubated at 30° C. for 4 days. In each interval of 24 hrs, 1 mL of each culture was removed from each flask to measure the optical density, 27 mL was removed and used for a fluorometric GUS assay (as described above), and two aliquots of 1.5 mL were removed for RNA isolation. The culture for RNA isolation was centrifuged to produce a cell pellet.
The RNA was isolated from Yarrowia strains according to the modified Qiagen RNeasy mini protocol (Qiagen, San Diego, Calif.). Briefly, at each time point for each sample, 340 μL of Qiagen's buffer RLT was used to resuspend each of the two cell pellets. The buffer RLT/cell suspension mixture from each of the two tubes was combined in a bead beating tube (Bio101, San Diego, Calif.). About 500 μL of […] glass beads was added to the tube and the cells were disrupted by bead beating 2 min at setting 5 (BioPulverizer, Bio101 Company, San Diego, Calif.). The disrupted cells were then pelleted by centrifugation at 14,000 rpm for 1 min and 350 μl of the supernatent was transferred to a new microcentrifuge tube. Ethanol (350 μL of 70%) was added to each homogenized lysate. After gentle mixing, the entire sample was added to a RNeasy mini column in a 2 mL collection tube. The sample was centrifuged for 15 sec at 10,000 rpm. Buffer RW1 (350 μL) was added to the RNeasy mini column and the column was centrifuged for 15 sec at 10,000 rpm to wash the cells. The eluate was discarded. Qiagen's DNasel stock solution (10 μL) was added to 70 μl of Buffer RDD and gently mixed. This entire DNase solution was added to the RNeasy mini column and incubated at room temperature for 15 min. After the incubation step, 350 μL of Buffer RW1 was added to the mini column and the column was centrifuged for 15 sec at 10,000 rpm. The column was washed twice with 700 μL […]. RNase-free water (50 μL) was added to the column. The column was centrifuged for 1 min at 10,000 rpm to elute the RNA.
A two-step RT-PCR protocol was used, wherein total Yarrowia RNA was first converted to cDNA and then cDNA was analyzed using Real Time PCR. The conversion to cDNA was performed using Applied Biosystems' High Capacity cDNA Archive Kit (PN#4322171; Foster City, Calif.) and Molecular Biology Grade water from MediaTech, Inc. (PN# 46-000-Con; Holly Hill, Fla.). Total RNA from Yarrowia (100 ng) was converted to cDNA by combining it with 10 μl of RT buffer, 4 μl of 25×dNTPs, 10 μl 10× Random Hexamer primers, 5 μl Multiscribe Reverse Transcriptase and 0.005 μl RNase Inhibitor, and brought to a total reaction volume of 100 μl with water. The reactions were incubated in a thermocycler for 10 min at 25° C. followed by 2 hrs at 37° C. The cDNA was stored at −20° C. prior to Real Time analysis.
Real Time analysis was performed using the SYBR Green PCR Master Mix from Applied Biosystems (PN# 4309155). The Reverse Transcription reaction (2 μl) was added to 10 μl of 2×SYBR PCR Mix, 0.2 μl of 100 μM Forward and Reverse primers for either URA (i.e., primers YL-URA-16F and YL-URA-78R [SEQ ID NOs:183 and 184]) or GUS (i.e., primers GUS-767F and GUS-891R [SEQ ID NO:185 and 186]) and 7.2 μl water. The reactions were thermocycled for 10 min at 95° C. followed by 40 cycles of 95° C. for 5 sec and 60° C. for 1 min in an ABI 7900 Sequence Detection System instrument. Real time fluorescence data was collected during the 60° C. extension during each cycle. […]

B1: FBA: Y. lipolytica fructose-bisphosphate aldolase promoter, SEQ ID NO:161 (nucleic acid, listed as Yarrowia lipolytica)
DNA: TAAACAGTGTACGCAGTACTATAGAGGAACAATTGCCCCGGAGAAGACGGCCAGGCCGCCTAGATGACAAATTCAACAACTCACAGCTGACTTTCTGCCATTGCCACTAGGGGGGGCCTTTTTATATGGCCAAGCCAAGCTCTCCACGTCGGTTGGGCTGCACCCAACAATAAATGGGTAGGGTTGCACCAACAAAGGGATGGGATGGGGGGTAGAAGATACGAGGATAACGGGGCTCAATGGCACAAATAAGAACGAATACTGCCATTAAGACTCGTGATCCAGCGACTGACACCATTGCATCATCTAAGGGCCTCAAAACTACCTCGGAACTGCTGCGCTGATCTGGACACCACAGAGGTTCCGAGCACTTTAGGTTGCACCAAATGTCCCACCAGGTGCAGGCAGAAAACGCTGGAACAGCGTGTACAGTTTGTCTTAACAAAAAGTGAGGGCGCTGAGGTCGAGCAGGGTGGTGTGACTTGTTATAGCCTTTAGAGCTGCGAAAGCGCGTATGGATTTGGCTCATCAGGCCAGATTGAGGGTCTGTGGACACATGTCATGTTAGTGTACTTCAATCGCCCCCTGGATATAGCCCCGACAATAGGCCGTGGCCTCATTTTTTTGCCTTCCGCACATTTCCATTGCTCGGTACCCACACCTTGCTTCTCCTGCACTTGCCAACCTTAATACTGGTTTACATTGACCAACATCTTACAAGCGGGGGGCTTGTCTAGGGTATATATAAACAGTGGCTCTCCCAATCGGTTGCCAGTCTCTTTTTTCCTTTCTTTCCCCACAGATTCGAAATCTAAACTACACATCACACAATGCCTGTTACTGACGTCCTTAAGCGAAAGTCCGGTGTCATCGTCGGCGACGATGTCCGAGCCGTGAGTATCCACGACAAGATCAGTGTCGAGACGACGCGTTTTGTGTAATGACACAATCCGAAAGTCGCTAGCAACACACACTCTCTACACAAACTAACCCAGCTCTCC
modifications: misc_feature: Promoter FBA
On to B1, for which the “Activity “Rank”” value in data set [1] stood at 4. The “transcription activity relative to the TEF promoter” value in the data set with GUS mRNA is on record as “about 3.3 times”.

B2: FBAIN: fructose-bisphosphate aldolase + intron promoter, SEQ ID NO:162 (nucleic acid, listed as Yarrowia lipolytica)
DNA: AAATTGCCCCGGAGAAGACGGCCAGGCCGCCTAGATGACAAATTCAACAACTCACAGCTGACTTTCTGCCATTGCCACTAGGGGGGGGCCTTTTTATATGGCCAAGCCAAGCTCTCCACGTCGGTTGGGCTGCACCCAACAATAAATGGGTAGGGTTGCACCAACAAAGGGATGGGATGGGGGGTAGAAGATACGAGGATAACGGGGCTCAATGGCACAAATAAGAACGAATACTGCCATTAAGACTCGTGATCCAGCGACTGACACCATTGCATCATCTAAGGGCCTCAAAACTACCTCGGAACTGCTGCGCTGATCTGGACACCACAGAGGTTCCGAGCACTTTAGGTTGCACCAAATGTCCCACCAGGTGCAGGCAGAAAACGCTGGAACAGCGTGTACAGTTTGTCTTAACAAAAAGTGAGGGCGCTGAGGTCGAGCAGGGTGGTGTGACTTGTTATAGCCTTTAGAGCTGCGAAAGCGCGTATGGATTTGGCTCATCAGGCCAGATTGAGGGTCTGTGGACACATGTCATGTTAGTGTACTTCAATCGCCCCCTGGATATAGCCCCGACAATAGGCCGTGGCCTCATTTTTTTGCCTTCCGCACATTTCCATTGCTCGGTACCCACACCTTGCTTCTCCTGCACTTGCCAACCTTAATACTGGTTTACATTGACCAACATCTTACAAGCGGGGGGCTTGTCTAGGGTATATATAAACAGTGGCTCTCCCAATCGGTTGCCAGTCTCTTTTTTCCTTTCTTTCCCCACAGATTCGAAATCTAAACTACACATCACACAATGCCTGTTACTGACGTCCTTAAGCGAAAGTCCGGTGTCATCGTCGGCGACGATGTCCGAGCCGTGAGTATCCACGACAAGATCAGTGTCGAGACGACGCGTTTTGTGTAATGACACAATCCGAAAGTCGCTAGCAACACACACTCTCTACACAAACTAACCCAGCTCTCC
modifications: misc_feature: Promoter FBAIN
Consider B2, for which the “Activity “Rank”” value in data set [1] is 7. For the same molecule, the “transcription activity relative to the TEF promoter” value in the data set with GUS mRNA is approximately 6 times. In addition, the “transcriptional activity relative to the TEF promoter” value in the data set with GUS mRNA (final day of the 4 day experiment in HGM) is “about 3 times”.
